Results taken from the supplement of paper PMC6757056.
± gives the standard deviation of the averaged measurements.

B1: library; a variant is named by its letters at N, in order (parent)
chain: GCUGUCACCGAGAAACUGUGAAGUAUAUCUUAAACCUGGGCACUUAAAAGAUAUAUGGAGUUAGUAGUGCAACCUGCUCGGUCUGAUGAGUCCNNNNNNGGACGAAACAGC

Key:
cyclic di-GMP [1] = variants of: B1; experiment: normalized RNA/DNA level without ligand (relative to sTRSVctl = 100) (log10 (% of sTRSVctl)); HEK293T; ligand: cyclic di-GMP (c-di-GMP-II aptamer); higher = less ribozyme self-cleavage, higher mRNA level; conditions: reporter: mCherry (pCS4076), ligand present: no
How it was run: (§1)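 RNA level was computed as RNA reads over DNA reads divided by a spiked-in non-cleaving sequence or by the top sequences, then scaled and log-transformed. Scaling was ×100 with log10, the top group was 25 sequences, and the threshold was ≥100 DNA reads. The reads came from HEK293T cells transfected at 4 µg per 6-well well with ribozyme switch library plasmids (mCherry, or eGFP in some ligand experiments). Total RNA was extracted with EDTA 72 h after transfection, with any ligand added 1 h before it.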

cyclic di-GMP [2] = variants of: B1; experiment: normalized RNA/DNA level with ligand (relative to sTRSVctl = 100) (log10 (% of sTRSVctl)); HEK293T; ligand: cyclic di-GMP (c-di-GMP-II aptamer); ligand concentration (+) RNA-Seq: 1 mM; higher = less ribozyme self-cleavage, higher mRNA level; conditions: reporter: mCherry (pCS4076), ligand present: yes
How it was run: as §1

Variant | normalized RNA/DNA level without ligand (log10) (cyclic di-GMP [1]) | normalized RNA/DNA level with ligand (log10) (cyclic di-GMP [2])
GCUGUCACCGAGAAACUGUGAAGUAUAUCUUAAACCUGGGCACUUAAAAGAUAUAUGGAGUUAGUAGUGCAACCUGCUCGGUCUGAUGAGUCCCCAUGUGGACGAAACAGC [CCAUGU] | 1.68 ± 0.054 | 1.8 ± 0.097
GCUGUCACCGAGAAACUGUGAAGUAUAUCUUAAACCUGGGCACUUAAAAGAUAUAUGGAGUUAGUAGUGCAACCUGCUCGGUCUGAUGAGUCCCCAUGGGGACGAAACAGC [CCAUGG] | 1.65 ± 0.11 | 1.82 ± 0.02
GCUGUCACCGAGAAACUGUGAAGUAUAUCUUAAACCUGGGCACUUAAAAGAUAUAUGGAGUUAGUAGUGCAACCUGCUCGGUCUGAUGAGUCCCCAUGAGGACGAAACAGC [CCAUGA] | 1.52 ± 0.033 | 1.72 ± 0.087
GCUGUCACCGAGAAACUGUGAAGUAUAUCUUAAACCUGGGCACUUAAAAGAUAUAUGGAGUUAGUAGUGCAACCUGCUCGGUCUGAUGAGUCCACAUGAGGACGAAACAGC [ACAUGA] | 1.3 ± 0.07 | 1.53 ± 0.13
GCUGUCACCGAGAAACUGUGAAGUAUAUCUUAAACCUGGGCACUUAAAAGAUAUAUGGAGUUAGUAGUGCAACCUGCUCGGUCUGAUGAGUCCACAUGCGGACGAAACAGC [ACAUGC] | 1.59 ± 0.049 | 1.77 ± 0.053
GCUGUCACCGAGAAACUGUGAAGUAUAUCUUAAACCUGGGCACUUAAAAGAUAUAUGGAGUUAGUAGUGCAACCUGCUCGGUCUGAUGAGUCCACAUGUGGACGAAACAGC [ACAUGU] | 1.541 ± 0.01 | 1.69 ± 0.091
GCUGUCACCGAGAAACUGUGAAGUAUAUCUUAAACCUGGGCACUUAAAAGAUAUAUGGAGUUAGUAGUGCAACCUGCUCGGUCUGAUGAGUCCUCAUGAGGACGAAACAGC [UCAUGA] | 1.57 ± 0.026 | 1.75 ± 0.12
GCUGUCACCGAGAAACUGUGAAGUAUAUCUUAAACCUGGGCACUUAAAAGAUAUAUGGAGUUAGUAGUGCAACCUGCUCGGUCUGAUGAGUCCUCAUGGGGACGAAACAGC [UCAUGG] | 1.77 ± 0.019 | 1.9 ± 0.08
GCUGUCACCGAGAAACUGUGAAGUAUAUCUUAAACCUGGGCACUUAAAAGAUAUAUGGAGUUAGUAGUGCAACCUGCUCGGUCUGAUGAGUCCUCAUGCGGACGAAACAGC [UCAUGC] | 1.71 ± 0.081 | 1.89 ± 0.045
GCUGUCACCGAGAAACUGUGAAGUAUAUCUUAAACCUGGGCACUUAAAAGAUAUAUGGAGUUAGUAGUGCAACCUGCUCGGUCUGAUGAGUCCGCAUGCGGACGAAACAGC [GCAUGC] | 1.68 ± 0.026 | 1.81 ± 0.097
GCUGUCACCGAGAAACUGUGAAGUAUAUCUUAAACCUGGGCACUUAAAAGAUAUAUGGAGUUAGUAGUGCAACCUGCUCGGUCUGAUGAGUCCGCAUGGGGACGAAACAGC [GCAUGG] | 1.46 ± 0.15 | 1.67 ± 0.064
GCUGUCACCGAGAAACUGUGAAGUAUAUCUUAAACCUGGGCACUUAAAAGAUAUAUGGAGUUAGUAGUGCAACCUGCUCGGUCUGAUGAGUCCGCAUGAGGACGAAACAGC [GCAUGA] | 1.38 ± 0.1 | 1.54 ± 0.086
GCUGUCACCGAGAAACUGUGAAGUAUAUCUUAAACCUGGGCACUUAAAAGAUAUAUGGAGUUAGUAGUGCAACCUGCUCGGUCUGAUGAGUCCCCAUCUGGACGAAACAGC [CCAUCU] | 1.62 ± 0.074 | 1.76 ± 0.16
GCUGUCACCGAGAAACUGUGAAGUAUAUCUUAAACCUGGGCACUUAAAAGAUAUAUGGAGUUAGUAGUGCAACCUGCUCGGUCUGAUGAGUCCUCAUCUGGACGAAACAGC [UCAUCU] | 1.71 ± 0.052 | 1.9 ± 0.1
GCUGUCACCGAGAAACUGUGAAGUAUAUCUUAAACCUGGGCACUUAAAAGAUAUAUGGAGUUAGUAGUGCAACCUGCUCGGUCUGAUGAGUCCUCAUUGGGACGAAACAGC [UCAUUG] | 1.617 ± 0.0034 | 1.82 ± 0.082
GCUGUCACCGAGAAACUGUGAAGUAUAUCUUAAACCUGGGCACUUAAAAGAUAUAUGGAGUUAGUAGUGCAACCUGCUCGGUCUGAUGAGUCCUCAUUCGGACGAAACAGC [UCAUUC] | 1.69 ± 0.051 | 1.85 ± 0.084
GCUGUCACCGAGAAACUGUGAAGUAUAUCUUAAACCUGGGCACUUAAAAGAUAUAUGGAGUUAGUAGUGCAACCUGCUCGGUCUGAUGAGUCCGCCAAAGGACGAAACAGC [GCCAAA] | 1.49 ± 0.1 | 1.68 ± 0.08
GCUGUCACCGAGAAACUGUGAAGUAUAUCUUAAACCUGGGCACUUAAAAGAUAUAUGGAGUUAGUAGUGCAACCUGCUCGGUCUGAUGAGUCCCCAUUUGGACGAAACAGC [CCAUUU] | 1.569 ± 0.013 | 1.7 ± 0.12
GCUGUCACCGAGAAACUGUGAAGUAUAUCUUAAACCUGGGCACUUAAAAGAUAUAUGGAGUUAGUAGUGCAACCUGCUCGGUCUGAUGAGUCCCCAUUCGGACGAAACAGC [CCAUUC] | 1.59 ± 0.043 | 1.77 ± 0.12
GCUGUCACCGAGAAACUGUGAAGUAUAUCUUAAACCUGGGCACUUAAAAGAUAUAUGGAGUUAGUAGUGCAACCUGCUCGGUCUGAUGAGUCCCCAUUAGGACGAAACAGC [CCAUUA] | 1.41 ± 0.066 | 1.6 ± 0.093
GCUGUCACCGAGAAACUGUGAAGUAUAUCUUAAACCUGGGCACUUAAAAGAUAUAUGGAGUUAGUAGUGCAACCUGCUCGGUCUGAUGAGUCCACAUCUGGACGAAACAGC [ACAUCU] | 1.6 ± 0.07 | 1.76 ± 0.092
GCUGUCACCGAGAAACUGUGAAGUAUAUCUUAAACCUGGGCACUUAAAAGAUAUAUGGAGUUAGUAGUGCAACCUGCUCGGUCUGAUGAGUCCACAUUUGGACGAAACAGC [ACAUUU] | 1.42 ± 0.05 | 1.67 ± 0.11
GCUGUCACCGAGAAACUGUGAAGUAUAUCUUAAACCUGGGCACUUAAAAGAUAUAUGGAGUUAGUAGUGCAACCUGCUCGGUCUGAUGAGUCCACAUUCGGACGAAACAGC [ACAUUC] | 1.6 ± 0.084 | 1.81 ± 0.058
GCUGUCACCGAGAAACUGUGAAGUAUAUCUUAAACCUGGGCACUUAAAAGAUAUAUGGAGUUAGUAGUGCAACCUGCUCGGUCUGAUGAGUCCGCAUUAGGACGAAACAGC [GCAUUA] | 1.47 ± 0.089 | 1.71 ± 0.12
GCUGUCACCGAGAAACUGUGAAGUAUAUCUUAAACCUGGGCACUUAAAAGAUAUAUGGAGUUAGUAGUGCAACCUGCUCGGUCUGAUGAGUCCGCAUUUGGACGAAACAGC [GCAUUU] | 1.55 ± 0.037 | 1.74 ± 0.095
GCUGUCACCGAGAAACUGUGAAGUAUAUCUUAAACCUGGGCACUUAAAAGAUAUAUGGAGUUAGUAGUGCAACCUGCUCGGUCUGAUGAGUCCGCAUUCGGACGAAACAGC [GCAUUC] | 1.423 ± 0.011 | 1.7 ± 0.17
